Test results reported in the supplement of paper PMC9876800.

System: peptide library, one residue held at a place counted from the S/T acceptor
Assay: relative phosphorylation of the sub-library (ratio to the mean residue at this position); higher = residue favoured
In short: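 Spots on streptavidin membranes were phosphorimaged and quantified by densitometry to measure phosphorylation of biotinylated degenerate peptide sub-libraries by purified recombinant kinases, human or orthologue constructs. The reactions ran in 384-well plates for 90 min under kinase-specific conditions, with peptides at 50 μM and 50 μM ATP spiked with γ-32P-ATP. Relative sub-library phosphorylation is the ratio to the mean residue at that position.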

Sequence of MYO3A, construct: aa1-308, human (Q8NEV4 1-308, looked up): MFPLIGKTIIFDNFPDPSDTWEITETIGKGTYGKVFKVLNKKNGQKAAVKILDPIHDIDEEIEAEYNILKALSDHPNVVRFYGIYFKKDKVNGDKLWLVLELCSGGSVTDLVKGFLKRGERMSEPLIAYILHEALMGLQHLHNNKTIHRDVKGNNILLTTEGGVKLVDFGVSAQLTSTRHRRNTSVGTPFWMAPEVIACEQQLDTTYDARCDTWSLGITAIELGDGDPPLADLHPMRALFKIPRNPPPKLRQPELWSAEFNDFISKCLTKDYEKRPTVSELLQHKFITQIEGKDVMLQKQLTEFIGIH
Sequence of MAPKAPK5, construct: Full length, human (Q8IW41 whole entry, looked up): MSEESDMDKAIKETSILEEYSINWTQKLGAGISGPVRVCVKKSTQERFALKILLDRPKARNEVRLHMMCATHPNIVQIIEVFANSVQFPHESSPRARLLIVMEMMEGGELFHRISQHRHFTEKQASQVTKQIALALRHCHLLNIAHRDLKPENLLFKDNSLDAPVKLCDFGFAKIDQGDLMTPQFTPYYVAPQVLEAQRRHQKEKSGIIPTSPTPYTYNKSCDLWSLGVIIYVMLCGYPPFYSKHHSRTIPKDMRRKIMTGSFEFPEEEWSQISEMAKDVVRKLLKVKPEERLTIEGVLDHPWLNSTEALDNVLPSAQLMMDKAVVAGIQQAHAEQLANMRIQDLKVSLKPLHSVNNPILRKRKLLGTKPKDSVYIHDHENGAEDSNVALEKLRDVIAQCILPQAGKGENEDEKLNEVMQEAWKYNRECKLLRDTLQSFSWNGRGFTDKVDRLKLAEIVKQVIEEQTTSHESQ
Sequence of MAP3K1, construct: aa1174-end, human (Q13233 1174-1512, looked up): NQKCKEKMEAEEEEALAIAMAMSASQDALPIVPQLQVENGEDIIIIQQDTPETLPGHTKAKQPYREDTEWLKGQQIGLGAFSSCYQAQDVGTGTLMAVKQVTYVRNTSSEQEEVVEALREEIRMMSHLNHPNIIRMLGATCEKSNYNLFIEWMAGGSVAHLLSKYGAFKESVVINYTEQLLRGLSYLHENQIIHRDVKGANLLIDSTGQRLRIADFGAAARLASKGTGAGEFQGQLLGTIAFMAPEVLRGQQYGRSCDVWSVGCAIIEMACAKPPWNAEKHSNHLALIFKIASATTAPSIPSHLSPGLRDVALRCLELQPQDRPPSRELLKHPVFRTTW

CDK2, construct: Full length, human (from UniProt P24941)
relative phosphorylation
Conditions	at +1	at +2	at +3	at +4	at -1	at -2	at -3	at -4	at -5
A fixed	0.422	0.748	0.457	0.579	0.947	0.875	1.06	1.02	1.03
D fixed	0.304	0.611	0.279	0.735	1.08	0.754	0.692	1.01	1.09
E fixed	0.304	0.544	0.265	0.591	0.846	0.701	0.887	1.08	0.998
F fixed	0.365	0.976	0.438	0.837	1.1	1.29	0.928	1.08	1.01
G fixed	0.923	0.664	0.497	1.13	1.39	0.891	1.6	1.03	0.824
H fixed	0.367	1.28	0.871	1.04	0.879	1.21	1.3	1.21	1.17
I fixed	0.409	0.781	0.325	0.92	0.428	0.804	0.877	0.911	0.684
K fixed	0.439	1.91	8.59	1.62	1.01	0.798	0.839	1.02	1.17
L fixed	0.384	0.947	0.358	1.12	1.02	1.27	0.88	0.911	0.787
M fixed	0.407	1.09	0.405	1.3	1.02	1.27	0.895	0.814	0.8
N fixed	0.402	1.08	0.524	1.06	1.01	0.963	0.91	0.888	0.813
P fixed	10.1	0.384	0.626	0.731	0.7	1.3	0.804	0.589	1.1
Q fixed	0.499	1.47	0.665	1.17	1.37	1.09	1.18	1.18	1.13
R fixed	0.494	1.94	1.49	0.939	1.3	0.684	0.88	0.829	1.06
V fixed	0.516	1.08	0.392	0.977	0.643	0.892	1.04	0.907	1
W fixed	0.326	0.667	0.429	1.32	1.34	1.19	1.2	1.4	1.13
Y fixed	0.33	0.82	0.393	0.935	0.92	1.01	1.03	1.1	1.19
pThr fixed	1.22	0.953	1.31	0.611	0.373	0.917	1.01	0.787	0.965
pTyr fixed	2.21	0.603	1.1	0.825	0.766	1.63	1.13	0.938	0.898

MAPKAPK5, construct: Full length, human (from UniProt Q8IW41)
relative phosphorylation
Conditions	at +1	at +2	at +3	at +4	at -1	at -2	at -3	at -4	at -5
A fixed	0.697	1.12	1.09	0.728	0.899	1.63	0.654	0.868	0.78
D fixed	0.317	1.3	0.82	1.17	0.706	0.282	0.157	0.486	0.433
E fixed	0.474	1.29	0.757	1.01	0.557	0.442	0.171	0.864	0.313
F fixed	1.17	0.746	1.48	0.96	0.965	0.679	0.639	1.11	1.79
G fixed	0.396	0.947	0.903	1.05	0.427	1.07	0.5	0.658	0.527
H fixed	1.13	1.11	1.01	1.17	1.22	0.742	1.14	1.03	0.763
I fixed	1.38	0.921	0.694	0.883	1.18	0.522	0.228	0.834	1.24
K fixed	0.641	0.729	0.646	0.917	0.966	0.769	0.754	1.23	0.777
L fixed	1.02	0.704	0.819	0.794	1.33	1.16	0.521	1.19	1.59
M fixed	1.15	1	1.05	0.912	1.8	1.77	0.816	1.27	1.27
N fixed	0.552	1.08	0.687	0.986	1.09	0.903	0.341	0.642	0.633
P fixed	0.338	0.956	1.46	1.25	0.529	0.292	0.322	0.512	0.748
Q fixed	1.13	1.23	0.672	0.898	0.935	2.85	0.696	0.93	0.62
R fixed	0.931	0.972	0.602	0.968	1.38	1.55	7.97	1.32	1.28
V fixed	1.84	1.24	1.1	0.768	1.04	0.608	0.267	0.813	0.894
W fixed	2.06	0.716	1.48	1.41	0.822	0.861	0.935	1.82	1.89
Y fixed	1.78	0.942	1.73	1.14	1.17	0.862	0.885	1.43	1.47
pThr fixed	0.688	0.697	0.784	1.49	0.462	0.387	0.267	0.599	0.61
pTyr fixed	2.04	1.96	1.2	1.41	1.28	1.36	0.297	1.26	0.914

MAP3K1, construct: aa1174-end, human (from UniProt Q13233)
relative phosphorylation
Conditions	at +1	at +2	at +3	at +4	at -1	at -2	at -3	at -4	at -5
A fixed	0.537	1.1	0.749	0.741	0.7	1.08	1.07	1.01	1.04
D fixed	0.324	0.73	0.46	0.814	1.35	1.11	1.04	1.21	1.21
E fixed	0.309	0.439	0.395	0.711	0.98	0.858	1.14	1.08	1.23
F fixed	1.12	0.619	1.17	0.878	0.741	1.01	0.862	1.06	0.837
G fixed	0.785	0.9	0.977	1.14	1.22	1.31	1.44	1.33	1.67
H fixed	0.853	1.27	1.03	1.23	1.89	1.33	1.19	1.17	1.19
I fixed	2.35	0.826	1.35	1.13	0.522	0.69	0.849	0.721	0.812
K fixed	0.593	1.57	0.996	1.04	0.791	0.644	0.659	0.899	0.897
L fixed	1.31	0.49	1.35	0.914	0.711	1.03	0.772	0.715	0.565
M fixed	1.88	1.03	1.46	1.1	1.23	1.29	1.16	0.793	0.832
N fixed	0.688	1.38	0.727	1.02	1.57	1.26	0.989	0.996	1.09
P fixed	0.343	0.583	0.773	0.923	0.893	0.839	1.13	0.952	1.07
Q fixed	0.963	0.825	0.725	0.823	1.09	1.03	0.78	0.838	0.761
R fixed	0.837	2.5	1.24	1.6	1.38	0.832	0.857	0.954	1.17
V fixed	1.77	0.777	0.812	0.66	0.479	0.581	0.639	0.735	0.65
W fixed	1.19	0.798	1.41	1.19	0.599	0.943	1.27	1.54	0.897
Y fixed	1.15	1.17	1.36	1.08	0.855	1.16	1.15	0.982	1.09
pThr fixed	0.504	0.403	0.516	0.644	0.679	0.909	1.05	0.952	1.05
pTyr fixed	0.495	0.368	0.623	0.696	0.796	0.796	1.22	0.824	1.36

MYO3A, construct: aa1-308, human (from UniProt Q8NEV4)
relative phosphorylation
Conditions	at +1	at +2	at +3	at +4	at -1	at -2	at -3	at -4	at -5
A fixed	0.412	0.7	0.734	0.973	0.971	0.873	1.07	0.953	1.14
D fixed	0.178	0.35	0.257	0.506	1.19	0.602	0.814	1.22	1.14
E fixed	0.151	0.271	0.229	0.425	0.697	0.382	0.772	1.19	1.08
F fixed	0.71	0.638	0.858	0.517	0.847	1.45	0.821	0.951	0.819
G fixed	0.559	0.815	0.815	1.34	1.81	0.691	1.05	1.12	1.12
H fixed	0.634	1.3	1.02	0.986	1.07	1.59	1.31	1.26	1.11
I fixed	1.65	0.572	0.801	0.72	0.345	0.684	0.789	0.801	0.823
K fixed	1.49	3.03	2.71	2.63	1.12	0.754	1.2	0.982	1.13
L fixed	2.17	0.728	1.08	0.771	0.976	0.498	0.683	0.74	0.629
M fixed	2.55	0.933	0.883	0.67	1.22	0.941	0.903	0.807	0.81
N fixed	0.61	0.737	0.835	0.853	1.29	1.21	1.16	1.19	1.06
P fixed	0.313	0.857	0.766	0.981	0.568	0.633	0.959	0.899	1.09
Q fixed	0.737	0.726	0.753	0.908	1.01	0.798	1.08	1.06	1.05
R fixed	1.95	2.8	2.77	2.32	1.26	1.2	1.16	0.835	1.18
V fixed	0.882	0.688	0.775	0.752	0.523	0.579	0.759	0.89	0.927
W fixed	1.01	0.908	0.756	1.01	0.886	1.49	1.26	1.11	0.83
Y fixed	0.985	0.947	0.956	0.643	1.21	2.62	1.21	0.993	1.08
pThr fixed	0.523	0.418	0.71	0.348	0.573	0.699	0.939	1.19	1.06
pTyr fixed	0.325	0.301	0.649	0.403	1.65	0.771	0.993	1.24	1.24
